Laboratory results published in US7211395 (dated 2007).

Columns and labels:
rabbit serum albumin = target: T1, rabbit serum albumin (rabbit, UniProt P49065); test: FP, PBS pH 7.4
T1 chain: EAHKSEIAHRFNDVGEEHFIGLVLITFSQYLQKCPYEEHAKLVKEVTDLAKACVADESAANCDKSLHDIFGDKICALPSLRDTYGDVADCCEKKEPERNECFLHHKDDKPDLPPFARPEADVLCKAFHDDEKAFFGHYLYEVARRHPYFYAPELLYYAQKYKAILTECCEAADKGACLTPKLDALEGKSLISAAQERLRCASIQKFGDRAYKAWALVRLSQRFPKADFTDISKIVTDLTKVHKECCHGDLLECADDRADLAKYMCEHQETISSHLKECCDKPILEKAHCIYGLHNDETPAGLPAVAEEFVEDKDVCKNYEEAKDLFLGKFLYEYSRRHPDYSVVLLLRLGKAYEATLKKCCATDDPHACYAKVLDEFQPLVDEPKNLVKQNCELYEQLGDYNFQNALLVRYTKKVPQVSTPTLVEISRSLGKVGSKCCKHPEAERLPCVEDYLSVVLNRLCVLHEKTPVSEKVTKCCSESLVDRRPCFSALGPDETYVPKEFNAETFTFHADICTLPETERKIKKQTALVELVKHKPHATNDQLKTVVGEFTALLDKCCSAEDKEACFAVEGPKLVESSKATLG

[1] = target: T2, human serum albumin (HSA) (human, UniProt P02768); test: FP, pH 6.2, no NaCl
rhesus serum albumin [2] = target: T3, rhesus serum albumin (rhesus macaque, UniProt Q28522); test: FP, pH 6.2, no NaCl
T3 chain: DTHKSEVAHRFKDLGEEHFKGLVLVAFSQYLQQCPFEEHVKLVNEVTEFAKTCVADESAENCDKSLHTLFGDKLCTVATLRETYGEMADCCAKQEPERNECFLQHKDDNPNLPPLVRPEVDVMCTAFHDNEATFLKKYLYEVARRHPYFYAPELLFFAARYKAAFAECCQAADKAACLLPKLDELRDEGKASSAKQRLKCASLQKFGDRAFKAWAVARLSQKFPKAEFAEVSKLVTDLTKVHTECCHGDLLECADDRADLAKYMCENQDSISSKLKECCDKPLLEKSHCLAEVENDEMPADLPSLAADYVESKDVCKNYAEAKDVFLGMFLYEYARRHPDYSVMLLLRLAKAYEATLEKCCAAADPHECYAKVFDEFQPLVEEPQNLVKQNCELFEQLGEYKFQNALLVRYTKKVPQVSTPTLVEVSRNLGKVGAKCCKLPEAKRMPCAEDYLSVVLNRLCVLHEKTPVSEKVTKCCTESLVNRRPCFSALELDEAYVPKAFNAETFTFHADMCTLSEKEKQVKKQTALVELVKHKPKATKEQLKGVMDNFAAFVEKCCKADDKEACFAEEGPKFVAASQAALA

[3] = target: T2, human serum albumin (HSA); test: FP, pH 7.4, 0.14 M NaCl
[4] = target: T2, human serum albumin (HSA); test: FP, PBS pH 7.4
chicken ovalbumin = target: T4, chicken ovalbumin (chicken, UniProt P01012); test: FP, PBS pH 7.4
T4 chain: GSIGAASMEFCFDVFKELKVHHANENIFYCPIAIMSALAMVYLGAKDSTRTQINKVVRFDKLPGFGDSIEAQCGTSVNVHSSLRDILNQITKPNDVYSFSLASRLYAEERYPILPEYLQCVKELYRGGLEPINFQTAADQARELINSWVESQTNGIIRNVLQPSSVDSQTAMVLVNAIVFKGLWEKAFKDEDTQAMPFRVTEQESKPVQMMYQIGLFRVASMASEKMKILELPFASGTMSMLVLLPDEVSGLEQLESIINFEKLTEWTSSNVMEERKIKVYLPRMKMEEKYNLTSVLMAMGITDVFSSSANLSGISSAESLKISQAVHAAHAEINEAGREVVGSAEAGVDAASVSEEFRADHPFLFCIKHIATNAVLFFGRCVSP

rhesus serum albumin [5] = target: T3, rhesus serum albumin; test: FP, PBS pH 7.4
pig serum albumin = target: T5, pig serum albumin (pig, UniProt P08835); test: FP, pH 6.2, no NaCl
T5 chain: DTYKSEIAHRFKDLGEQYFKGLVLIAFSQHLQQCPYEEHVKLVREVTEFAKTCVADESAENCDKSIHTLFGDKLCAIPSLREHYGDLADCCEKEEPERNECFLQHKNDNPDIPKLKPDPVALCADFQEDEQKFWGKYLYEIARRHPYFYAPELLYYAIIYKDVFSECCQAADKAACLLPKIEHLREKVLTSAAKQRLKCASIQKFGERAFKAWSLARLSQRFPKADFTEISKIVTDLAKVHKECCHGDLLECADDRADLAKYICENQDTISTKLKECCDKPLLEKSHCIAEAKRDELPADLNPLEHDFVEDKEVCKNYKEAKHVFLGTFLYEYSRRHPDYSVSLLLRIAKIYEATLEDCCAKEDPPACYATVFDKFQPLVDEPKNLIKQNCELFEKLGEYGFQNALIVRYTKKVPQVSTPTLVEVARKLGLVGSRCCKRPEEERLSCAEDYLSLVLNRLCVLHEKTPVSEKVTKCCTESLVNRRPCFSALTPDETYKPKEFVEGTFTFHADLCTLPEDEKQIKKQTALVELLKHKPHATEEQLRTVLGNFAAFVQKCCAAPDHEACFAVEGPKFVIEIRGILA

bovine serum albumin = bovine serum albumin (bovine, UniProt P02769); test: FP, PBS pH 7.4
Chain of bovine serum albumin (P02769 25-607): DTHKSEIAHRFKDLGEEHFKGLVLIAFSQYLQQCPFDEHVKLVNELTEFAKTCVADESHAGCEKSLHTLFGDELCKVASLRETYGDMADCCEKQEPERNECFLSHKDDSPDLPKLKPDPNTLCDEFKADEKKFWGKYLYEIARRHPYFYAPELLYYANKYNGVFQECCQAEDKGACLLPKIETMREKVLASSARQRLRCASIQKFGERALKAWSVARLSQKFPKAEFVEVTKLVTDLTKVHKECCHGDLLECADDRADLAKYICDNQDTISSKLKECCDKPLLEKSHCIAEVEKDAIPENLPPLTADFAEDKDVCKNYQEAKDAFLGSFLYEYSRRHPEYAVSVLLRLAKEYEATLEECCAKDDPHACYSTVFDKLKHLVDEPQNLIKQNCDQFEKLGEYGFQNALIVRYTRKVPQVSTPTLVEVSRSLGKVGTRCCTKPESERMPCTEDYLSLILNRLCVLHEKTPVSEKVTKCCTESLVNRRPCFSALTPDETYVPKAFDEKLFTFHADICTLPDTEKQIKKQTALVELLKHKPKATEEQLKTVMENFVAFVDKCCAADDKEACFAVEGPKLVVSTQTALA

mouse serum albumin = mouse serum albumin (mouse, UniProt P07724); test: FP, PBS pH 7.4
Chain of mouse serum albumin (P07724 25-608): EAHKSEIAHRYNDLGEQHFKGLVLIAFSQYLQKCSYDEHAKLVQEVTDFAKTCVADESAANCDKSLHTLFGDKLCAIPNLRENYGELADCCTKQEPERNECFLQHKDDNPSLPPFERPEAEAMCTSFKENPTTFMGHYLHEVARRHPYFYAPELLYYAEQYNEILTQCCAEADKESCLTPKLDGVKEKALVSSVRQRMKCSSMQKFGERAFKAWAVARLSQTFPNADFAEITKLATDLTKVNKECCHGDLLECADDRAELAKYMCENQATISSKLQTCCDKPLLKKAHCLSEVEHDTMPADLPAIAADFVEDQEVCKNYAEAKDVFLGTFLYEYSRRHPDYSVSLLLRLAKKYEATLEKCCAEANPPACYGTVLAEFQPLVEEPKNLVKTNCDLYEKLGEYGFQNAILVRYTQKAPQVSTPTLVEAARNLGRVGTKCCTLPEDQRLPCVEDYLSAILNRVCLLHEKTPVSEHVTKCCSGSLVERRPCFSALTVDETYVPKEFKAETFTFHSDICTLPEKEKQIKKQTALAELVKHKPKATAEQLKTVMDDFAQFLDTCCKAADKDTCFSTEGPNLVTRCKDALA

[6] = target: T2, human serum albumin (HSA); test: FP, pH 6.2, no NaCl; remark: listed apart in the source

B1: DX-321 (peptide)
chain: AEGTGDRNMCKFSWIRSPAFCARADPEXK
modifications: disulfide cyclic, N-acetyl, C-amide, X = 6-aminohexanoic acid, fluorescein on Lys
Rabbit serum albumin
  Kd: > 200 µM
[1]
  Kd: 900 nM
Rhesus serum albumin [2]
  Kd: 38 µM
[3]
  Kd: 84 µM
[4]
  Kd: 84 µM
Chicken ovalbumin
  Kd: > 200 µM
Rhesus serum albumin [5]
  Kd: 82 µM
Pig serum albumin
  Kd: 21 µM
Bovine serum albumin
  Kd: > 200 µM
Mouse serum albumin
  Kd: > 200 µM
[6]
  Kd: 900 nM
